Drawing on the RNAGym collection of RNA variant scans (doi:10.7554/elife.80360), this text covers self-cleavage for 167 variants.

First the molecules themselves.
B1: CPEB3 Ribozyme (parent)
chain: GGGGGCCACAGCAGAAGCGUUCACGUCGCGGCCCCUGUCAGAUUCUGGUGAAUCUGCGAAUUCUGCUGU

The series covers variants of B1. The series is described as follows: self-cleavage, relative activity (ratio to wild type); higher = more cleavage; co-transcriptional.
Regarding G14U G68C, the self-cleavage worked out at 0.779.
Turning to G14U G68A, the self-cleavage worked out at 0.908.
On to G14A G41U, for which the self-cleavage was 0.264.
Consider G14A G41C, for which the self-cleavage worked out at 0.179.
For G14U A16G the value was 0.504; for G14U U55A, 0.325.
Take G14C U69A: the self-cleavage came out at 0.769.
Turning to G14C U53C, the self-cleavage amounted to 0.19.
Then G14C U53A, with 0.326; and G14C C18A, with 0.149; and G14C C18U, with 0.155.
Then G14C A23G, with 0.365.
In the case of G14U G37A, the self-cleavage came out at 0.197.
For G14A G31U the value was 0.207; for G14A A42G, 0.372.
As for G14A A42U, the self-cleavage is 0.329.
As to G14A C63G, the self-cleavage is 0.73.
Turning to G14A C63U, the self-cleavage was determined as 0.98.
Take G14C C35A: the self-cleavage came to 0.173.
In the case of G14A C27G, the self-cleavage was 0.116.
Take G14C C63G: the self-cleavage worked out at 0.971.
Regarding G14A A52G, the self-cleavage came to 0.805.
In the case of A15C A40U, the self-cleavage stood at 0.451.
Turning to G14U U61A, the self-cleavage was found to be 0.461.
As to G14A A51G, the self-cleavage stood at 0.81.
Turning to G14C A52C, the self-cleavage was 0.459.
G14C A52U: the self-cleavage came to 0.562.
For G14A G65A the value was 0.258; for G14U G19C, 0.15; for G14U G19U, 0.17.
Then G14C G58U, with 0.817.
Then G14C G58C, with 0.497.
Take G14C A15U: the self-cleavage is 0.179.
Turning to G14C A15G, the self-cleavage was determined as 0.725.
For G14A U38G the value was 0.152.
For G14A U38C the value was 0.501.
G14U C32G: the self-cleavage amounted to 0.237.
For the variant G14U G56A, the self-cleavage was 0.539.
For G14C U55G the value was 0.185; for G14A U21C, 0.413.
Then G14A U21G, with 0.121; and G14A U21A, with 0.646; and G14A, with 0.832.
G14C: the self-cleavage stood at 0.689.
For G14U the value was 0.855; for G14A C22U, 0.17.
Then G14A C22A, with 0.178.
Then G14U C35A, with 0.257; and G14C G65U, with 0.242.
On to G14A G30C, for which the self-cleavage was determined as 0.281.
For G14A G30U the value was 0.21.
Then G14A C34U, with 0.751; and G14U G41A, with 0.206; and G14U G41U, with 0.276.
For G14U G48C the value was 0.907.
With G14U G48U, the self-cleavage came out at 0.855.
Take G14A A59C: the self-cleavage worked out at 0.343.
G14A U61G: the self-cleavage stood at 0.414.
In the case of G14A U61C, the self-cleavage was 0.246.
G14U A40C: the self-cleavage amounted to 0.17.
With G14A U49A, the self-cleavage came out at 0.742.
For G14A U49G the value was 0.842; for G14C U44C, 0.189.
Take G14U U44A: the self-cleavage was determined as 0.553.
Then G14U U44G, with 0.566.
As to G14A A40U, the self-cleavage stood at 0.21.
Turning to G14U C33G, the self-cleavage was 0.341.
On to G14U G28A, for which the self-cleavage came out at 0.213.
Then G14U G28C, with 0.159.
For G14A G37U the value was 0.138; for G14A G37C, 0.114.
For G14C G19U the value was 0.156; for G14C G19C, 0.126; for G14A C24G, 0.148.
As to G14U A59C, the self-cleavage is 0.309.
For G14U A59G the value was 0.753; for G14A A15U, 0.424.
G14A A15G: the self-cleavage worked out at 0.823.
For G14U U26C the value was 0.478; for G14C U43A, 0.204.
For G14C U43C the value was 0.399; for G14A U26G, 0.401; for G14A U26C, 0.432.
Turning to G14A C57U, the self-cleavage came to 0.229.
As to G14U U49A, the self-cleavage was 0.858.
With G14C U26A, the self-cleavage worked out at 0.346.
Then G14A G47A, with 0.826; and G14U A51U, with 0.739; and G14A U20C, with 0.181.
With G14A C35G, the self-cleavage turned out to be 0.236.
For G14A C35A the value was 0.202.
Consider G14U G58U, for which the self-cleavage was 0.893.
For A15C A23G the value was 0.659.
As for A15C A23C, the self-cleavage was 0.835.
Then A15C A23U, with 0.917; and G14U A52G, with 0.851.
On to G14C C57G, for which the self-cleavage stood at 0.203.
Then G14C U20G, with 0.151.
For G14C C34U the value was 0.653; for G14U U21G, 0.147.
For G14U U62A the value was 0.482; for G14C G17U, 0.138.
Take G14C G56A: the self-cleavage was 0.31.
For the variant G14C C66G, the self-cleavage amounted to 0.447.
For G14U G17C the value was 0.128; for G14U A60C, 0.269; for G14U A60U, 0.331.
As to G14A U69A, the self-cleavage amounted to 0.875.
For G14A U69C the value was 1.
For G14A U69G the value was 0.934.
As to G14A C29G, the self-cleavage stood at 0.167.
Then G14A C29A, with 0.23.
Then G14A C33U, with 0.747.
Then G14A C33G, with 0.414; and G14U A42G, with 0.404; and G14U U69G, with 0.94.
In the case of G14U U69C, the self-cleavage turned out to be 1.03.
As to G14U U69A, the self-cleavage came to 0.923.
For G14U U36C the value was 0.535; for G14U U36G, 0.142.
Then G14A U36G, with 0.134; and G14C G47C, with 0.794; and G14A G68A, with 0.866.
As to G14A G68U, the self-cleavage worked out at 0.765.
As for G14U C24A, the self-cleavage worked out at 0.249.
For the variant G14C U38C, the self-cleavage came to 0.284.
For G14C U38A the value was 0.308; for G14U C66U, 0.436.
As for G14C C32U, the self-cleavage was determined as 0.716.
For G14C C24A the value was 0.136.
For G14C C24G, the self-cleavage is 0.131.
For G14U C22G the value was 0.172; for G14A G17C, 0.175.
Then G14A G17A, with 0.134; and G14U C39A, with 0.223; and G14C U61C, with 0.241.
For G14A U55A the value was 0.289.
As to G14A U46A, the self-cleavage came to 0.85.
With A13U U67G, the self-cleavage amounted to 0.827.
Regarding G14C A59G, the self-cleavage is 0.62.
As for G14C C54A, the self-cleavage worked out at 0.264.
As for G14C A51U, the self-cleavage was found to be 0.489.
For the variant G14A A23U, the self-cleavage was found to be 0.875.
Then G14U U43A, with 0.321; and G14C U49C, with 0.55; and G14A U64A, with 0.444.
For G14A C32U the value was 0.802.
Then G14U C27G, with 0.154; and G14U C27A, with 0.172.
Take G14A G28U: the self-cleavage was found to be 0.112.
Then G14A G28A, with 0.147; and G14U A15C, with 0.415.
Then G14U A15U, with 0.358; and G14A U53G, with 0.344; and G14A U53A, with 0.362.
Then G14U U67A, with 0.733; and G14U U46G, with 0.871.
Consider G14A G19U, for which the self-cleavage is 0.091.
For G14C G30U the value was 0.157.
As to G14C G30C, the self-cleavage turned out to be 0.142.
G14C A40U: the self-cleavage amounted to 0.199.
On to G14U U20C, for which the self-cleavage came out at 0.219.
In the case of G14C G48U, the self-cleavage was 0.805.
Take G14C A60C: the self-cleavage is 0.21.
For G14C A60U the value was 0.249; for G14A C54G, 0.312; for G14A C54U, 0.755.
